Test results: patent publication US10202443 (UNIVERSIT LAVAL, dated 2019)

Biological target: T1, TDP-43 1-206 amino acid fragment, containing the RRM1 domain (Homo sapiens (Human), UniProt Q13148 1-206)
T1 construct: Spotted on membranes for the dot blot; also called amino acids 1-206 of TDP-43
Assay: dot blot, scFv-conditioned medium, anti-myc HRP
Protocol: Example 6: Anti-TDP-43 Antibodies Having an scFv Format Detect TDP-43 RRM1 Domain Different concentrations of TDP-43 1-206 amino acid fragment, containing the RRM1 domain were loaded onto membranes by dot blot. Membranes were incubated overnight with media from Hek293 cells that had been transfected with pScFv9 expression plasmid containing the nucleic acids encoding E6_VH1Vk9 and E6_VH7Vk9. The myc signal was detected using anti-myc HRP antibody incubation.

T1 sequence (Q13148 1-206): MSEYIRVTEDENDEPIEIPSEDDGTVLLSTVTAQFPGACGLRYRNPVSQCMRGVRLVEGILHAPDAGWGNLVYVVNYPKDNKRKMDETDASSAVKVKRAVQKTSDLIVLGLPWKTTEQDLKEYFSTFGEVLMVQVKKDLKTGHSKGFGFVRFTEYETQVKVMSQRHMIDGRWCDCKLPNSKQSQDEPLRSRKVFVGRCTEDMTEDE

binding result	Binder
binds	E6_VH1Vκ9 scFv antibody (scFv, The signal is left out here; Used as conditioned medium or inside transfected cells; also called E6_VH1Vk9; VH1Vk9) scFv: LQESGGGLVQPGGSMKLSCVASGFTSSNYWLNWVRQSPERGLEWVAEIRLKSNNYATNYAESVKGRFTISRDDSKSSVYLQVNNLRAEDTGIYYCTRSTARATPYYFDYWGQGTTVTVSSGGGGSGGGGSGGGGSDIELTQSPSSLAVSAGEKVTMSCKSSQSLLNSRARKNFLTWYQQKPGQSPKLLIYWASTRESGVPDRFTGSGSGTDFTLTISSVQAEDLAVYYCKQSYNLYTFGGGTKLEEQKLISEEDLN
binds	E6_VH7Vκ9 scFv antibody (scFv, The signal is left out here; It differs from E6_VH1Vκ9 by one residue (Q instead of E); also called E6_VH7Vk9; VH7Vk9) scFv: LQQSGGGLVQPGGSMKLSCVASGFTSSNYWLNWVRQSPERGLEWVAEIRLKSNNYATNYAESVKGRFTISRDDSKSSVYLQVNNLRAEDTGIYYCTRSTARATPYYFDYWGQGTTVTVSSGGGGSGGGGSGGGGSDIELTQSPSSLAVSAGEKVTMSCKSSQSLLNSRARKNFLTWYQQKPGQSPKLLIYWASTRESGVPDRFTGSGSGTDFTLTISSVQAEDLAVYYCKQSYNLYTFGGGTKLEEQKLISEEDLN
